In general, EC50 refers to the midpoint of the concentration-response curve. Low values mean higher potency in that assay, high ones lower potency in that assay. By IC50 is commonly meant the midpoint of a concentration-inhibition curve. A low value points to greater potency in that assay.

The values below come from US20190016809A1 (MONASH UNIVERSITY, published 2019).

The target of test [1] is T1, human CXCR2 (human, UniProt P25025 1-360).
T1 construct: also called hCXCR2; C-X-C motif chemokine receptor 2
T1 sequence: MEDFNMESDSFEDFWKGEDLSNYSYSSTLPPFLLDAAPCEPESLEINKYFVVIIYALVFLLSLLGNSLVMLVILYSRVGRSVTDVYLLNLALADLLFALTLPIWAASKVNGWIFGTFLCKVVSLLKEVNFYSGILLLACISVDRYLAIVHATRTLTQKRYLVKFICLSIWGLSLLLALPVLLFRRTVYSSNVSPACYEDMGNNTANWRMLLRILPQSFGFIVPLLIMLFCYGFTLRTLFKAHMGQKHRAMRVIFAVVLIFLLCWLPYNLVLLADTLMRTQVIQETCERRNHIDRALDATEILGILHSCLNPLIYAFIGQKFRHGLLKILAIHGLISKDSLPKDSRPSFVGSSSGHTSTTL
Description: ELISA, L1.2 hCXCR2 cells.

The target in test [2] is T1, human CXCR2. The test can be described thus: flow cytometry on L1.2 hCXCR2 cells. In general terms: In flow cytometry, cells or beads pass a laser one at a time.
For test [3], the target named is T2, human CXCR7 (human, UniProt P25106 1-362).
T2 construct: whole, on cells; also called hCXCR7
T2 sequence (P25106 whole entry): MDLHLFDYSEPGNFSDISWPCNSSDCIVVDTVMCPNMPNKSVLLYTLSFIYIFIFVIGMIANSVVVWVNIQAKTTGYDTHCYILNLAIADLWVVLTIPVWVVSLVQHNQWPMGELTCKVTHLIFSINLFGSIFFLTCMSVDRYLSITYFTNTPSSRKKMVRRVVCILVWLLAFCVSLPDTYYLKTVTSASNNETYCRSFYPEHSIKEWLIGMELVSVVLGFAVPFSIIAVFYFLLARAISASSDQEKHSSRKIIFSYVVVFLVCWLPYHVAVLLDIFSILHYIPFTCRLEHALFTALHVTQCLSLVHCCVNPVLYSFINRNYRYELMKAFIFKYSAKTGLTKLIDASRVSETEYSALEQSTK
The test can be described thus: flow cytometry on transfected cells. The protocol: (§1) To assess reactivity of mAbs against transfected cells, we used indirect immunofluorescence staining and flow cytometry. Cells were washed once with PBS and resuspended in 100 μl PBS containing 2% (wt/vol) BSA and 0.1% (wt/vol) sodium azide (staining buffer) and purified antibody. After 30 min at 4° C., cells were washed twice with staining buffer and resuspended in 50 μl PE-conjugated anti-human IgG (Jackson ImmunoResearch Laboratories) diluted 1:500 in staining buffer for the detection of humanized mAbs or 50 μl PE-conjugated anti-mouse IgG (Jackson ImmunoResearch Laboratories) for the detection of mouse mAbs. After incubating for 20 min at 4° C., cells were washed twice with staining buffer and analyzed on LSRII flow cytometer. 7-AAD staining was used to exclude dead cells.

Test [4] addresses T3, human CCR6 (human, UniProt P51684 1-374).
T3 construct: whole, on cells; also called hCCR6
T3 sequence (looked up): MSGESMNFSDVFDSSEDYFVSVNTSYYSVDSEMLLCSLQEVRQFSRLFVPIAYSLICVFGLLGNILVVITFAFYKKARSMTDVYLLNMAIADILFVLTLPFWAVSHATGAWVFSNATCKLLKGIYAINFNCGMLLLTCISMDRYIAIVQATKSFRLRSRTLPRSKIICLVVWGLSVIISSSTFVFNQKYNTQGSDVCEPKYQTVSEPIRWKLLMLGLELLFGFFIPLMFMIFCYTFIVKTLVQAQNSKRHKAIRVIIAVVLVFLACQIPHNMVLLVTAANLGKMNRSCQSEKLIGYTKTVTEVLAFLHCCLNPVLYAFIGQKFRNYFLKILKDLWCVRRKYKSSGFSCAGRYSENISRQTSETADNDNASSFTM
The test can be described thus: flow cytometry on transfected cells. The protocol: as §1

Test [5] has as its target T4, human CXCR1 (human, UniProt P25024 1-350).
T4 construct: whole, on cells; also called hCXCR1
T4 sequence (looked up): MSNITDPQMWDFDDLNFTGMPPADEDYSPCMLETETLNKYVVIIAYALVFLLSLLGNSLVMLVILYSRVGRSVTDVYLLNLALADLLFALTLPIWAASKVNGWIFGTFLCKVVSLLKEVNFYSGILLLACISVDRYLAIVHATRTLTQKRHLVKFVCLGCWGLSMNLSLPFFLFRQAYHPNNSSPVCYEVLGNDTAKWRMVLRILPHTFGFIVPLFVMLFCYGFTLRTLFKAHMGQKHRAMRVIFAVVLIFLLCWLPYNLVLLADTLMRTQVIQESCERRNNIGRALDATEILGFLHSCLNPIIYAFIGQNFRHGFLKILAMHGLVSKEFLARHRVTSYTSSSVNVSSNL
Description: flow cytometry on transfected cells. As to the method: as §1

Test [6] has as its target T5, human CXCR3 (human, UniProt P49682 1-368).
T5 construct: whole, on cells; also called hCXCR3
T5 sequence (looked up): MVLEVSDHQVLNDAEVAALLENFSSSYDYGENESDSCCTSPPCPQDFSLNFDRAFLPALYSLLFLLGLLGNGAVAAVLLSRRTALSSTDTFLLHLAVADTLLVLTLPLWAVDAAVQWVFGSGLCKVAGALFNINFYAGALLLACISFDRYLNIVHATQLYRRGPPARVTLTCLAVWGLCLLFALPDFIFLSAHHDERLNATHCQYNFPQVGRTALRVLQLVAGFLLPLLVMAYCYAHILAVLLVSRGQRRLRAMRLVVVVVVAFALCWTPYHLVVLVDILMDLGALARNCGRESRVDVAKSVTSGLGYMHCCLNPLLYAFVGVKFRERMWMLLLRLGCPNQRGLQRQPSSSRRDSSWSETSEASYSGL
The test can be described thus: flow cytometry on transfected cells. As to the method:
as §1

Test [7] addresses T6, Peptide 1 (human, biotinylated (position not given)).
T6 construct: Biotinylated peptide of the human CXCR2 N-terminal region, captured on streptavidin plates; also called Nter-1; Peptide 1/Nter-1
T6 peptide: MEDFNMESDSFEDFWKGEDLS
The test can be described thus: ELISA on biotinylated peptide captured on streptavidin. As to the method:
(§2) Epitope mapping studies were performed to determine the region within CXCR2 that is recognized by anti-CXCR2 mAb. Initially, biotinylated peptides corresponding to the N-terminal region and the first, second and third extracellular loops of human CXCR2 were used in an ELISA.
(§3) Three overlapping biotinylated peptides spanning the entire N-terminal region of human CXCR2 were then synthesized and used in more defined anti-CXCR2 mAb epitope mapping studies. Peptide 1 ([…]) (SEQ ID NO:53) corresponds to amino acid position 1-21 of the human CXCR2; Peptide 2 ([…]) (SEQ ID NO:55) corresponds to amino acid position 10-31 and Peptide 3 ([…]) (SEQ ID NO:54) corresponds to amino acid 20-46 position of the human CXCR2. Briefly, multiwell plates were coated with streptavidin and washed before the biotinylated peptides were added to separate wells and incubated to facilitate binding of the peptides to the plate. Different anti-human CXCR2 antibodies were then tested by adding the respective antibodies to the wells of the plate and incubating the plate. An isotype control and buffer only were included as negative controls. Following washing, appropriate conjugated antibodies were added and the plates were incubated. The plates were washed again and binding of the antibodies to the immobilised peptides was visualised.
For orientation: In an ELISA, binding on a coated surface is turned into a signal by an enzyme label.

Test [8] addresses T7, Peptide 2 (human, biotinylated (position not given)).
T7 construct: Biotinylated peptide of the human CXCR2 N-terminal region, captured on streptavidin plates; also called Nter-2; Peptide 2/Nter-2
T7 peptide: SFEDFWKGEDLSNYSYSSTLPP
Described as above. The protocol: as §2, §3

Test [9] addresses T8, Peptide 3 (human, biotinylated (position not given)).
T8 construct: Biotinylated peptide of the human CXCR2 N-terminal region; also called Nter-3; Peptide 3/Nter-3
T8 peptide: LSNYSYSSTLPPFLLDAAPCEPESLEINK
Described as above. The protocol:
as §2, §3

Test [10] has as its target T9, biotinylated peptide corresponding to the second extracellular loop of human CXCR2 (human, UniProt P25025 184-208, limits assumed, biotinylated (position not given)).
T9 construct: domain: second extracellular loop; also called 2nd loop
T9 peptide (looked up): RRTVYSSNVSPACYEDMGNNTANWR
The description is as above. As to the method: as §2, §3

The target in test [11] is T10, human CXCR2 (UniProt P25025 1-360).
T10 chain: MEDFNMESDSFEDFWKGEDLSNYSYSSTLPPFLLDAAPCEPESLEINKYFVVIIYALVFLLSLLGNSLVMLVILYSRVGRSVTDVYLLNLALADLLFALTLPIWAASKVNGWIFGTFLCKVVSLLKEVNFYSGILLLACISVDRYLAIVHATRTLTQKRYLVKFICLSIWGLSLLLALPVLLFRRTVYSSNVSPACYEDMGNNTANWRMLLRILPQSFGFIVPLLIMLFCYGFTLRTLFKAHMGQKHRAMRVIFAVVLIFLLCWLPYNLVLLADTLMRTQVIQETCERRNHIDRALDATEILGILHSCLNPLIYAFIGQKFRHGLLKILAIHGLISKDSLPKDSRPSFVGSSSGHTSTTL
The test can be described thus: flow cytometry, CXCR2 L1.2 cells.

Test [12] has as its target T1, human CXCR2. Description: competition with 125I-labelled CXCL3 (GRO-g) for CXCR2 on human neutrophils. As to the method:
For ligand binding analysis, recombinant human GRO-g (“ligand”) was obtained from Peprotech (New Jersey, USA). 1251-Bolton-Hunter-labelled GRO-g was purchased from Perkin-Elmer (Boston, Mass., USA), with a specific activity of 2200 Ci/mM. Cells were washed once in binding buffer (50 mM Hepes, pH 7.5, 1 mM CaCI, 5 mM MgCb, 0.5% BSA) and resuspended in binding buffer at a concentration of 2.5×10^6 cells/ml. Cold Purified monoclonal antibody (cold competitor) was added to a 96-well plate followed by an equal volume (40 μl) binding buffer containing 1×10^5 cells. Cells and competitor were preincubated at room temperature for 15 min. Then radiolabeled ligand (final concentration 0.5-2 nM) was added to each well to give a final reaction volume of 120 μl. After a 60-min incubation at room temperature, the cells were washed three times with 1 ml of binding buffer containing 150 mM NaCl. The radioactivity (amount of bound label) in the cell pellets was counted in a TopCount liquid scintillation counter (Packard). Non-specific background binding was calculated by incubating cells […] radiolabelled-ligand. Samples were assayed in duplicate.

B1: m3H9 (antibody, mouse IgG3, V domains shown)
VH: QVQLQQSGPELVKPGASVKISCKASGYAFSNSWMNWVKQRPGKGLEWIGRIYPGDGNINYYGKFKDKATLTADKSSNTAYMQLSSLTSEDSAVYFCARSFLYVDFDYWGQGTTLTVSS
VL: VIVMTQTPLSLPVSLGDQASISCRSSQSLVHSNGNTYLQWYLQKPGQSPKLLIYKVSNRFSGVPDRFSGSGSGTDFTLKISRVEAEDLGVYFCSQGTHVPYTFGGGTKLEIKR
notes: also called mouse 3H9; purified mouse 3H9 mAb
Regarding B1, the EC50 is 1.2 nM in [1], 1.05 nM in test [2] and 1.5 nM in test [11]. The binding result is on record as “no binding” in [3]; “no binding” in test [4]; “no binding” in [5]; “no binding” in [6]; “binds” in test [7]; “binds” in test [8]. Also, the binding result in test [9] and in [10] was “no binding” throughout. In test [12], this molecule came in with a half-maximal inhibitory concentration (IC50) of 0.7 nM.

B2: h3H9 (antibody, V domains shown)
VH: QVQLVQSGAEVKKPGASVKVSCKASGYAFSNSWMNWVRQAPGQRLEWIGRIYPGDGNINYYGKFKDKATLTADKSANTAYMELSSLRSEDTAVYFCARSFLYVDFDYWGQGTTLTVSS
VL: DIVMTQSPLSLPVTPGEPASISCRSSQSLVHSNGNTYLQWYLQKPGQSPQLLIYKVSNRFSGVPDRFSGSGSGTDFTLKISRVEAEDVGVYFCSQGTHVPYTFGQGTKLEIKR
In test [11], B2 yielded an EC50 of 2.2 nM.

B3: mCM2 (antibody, V domains shown)
VH: QVQLQQSGPELVKPGASVKISCKASGYAFSNSWMNWVKQRPGKGLEWIGRIYPGDGNINYYGKFKDKATLTADKSSNTAYMQLSSLTSEDSAVYFCARSFLYVYFDYWGQGTTLTVSS
VL: DAVMTQTPLSLPVSLGDQASISCRSSQSLVHSNGNTYLQWYLQKPGQSPKLLIYKLSNRFSGVPDRFSGSGAGTDFTLKISRVEAEDLGVYFCSQSTHVPYTFGGGTKLEIKR
notes: Mouse hybridoma monoclonal antibody
Regarding B3, the values for the EC50 in test [1] and in test [2] were 1.4 nM and 1.35 nM, respectively. For the same molecule, the binding result is given as “no binding” in [3]; “no binding” in test [4]; “no binding” in test [5]; “no binding” in test [6]; “binds” in test [7]; “binds” in test [8]. The binding result in test [9] and in [10] was “no binding” each time. In test [12], this molecule registered an IC50 of 11.1 nM.

B4: m6G7 (antibody, V domains shown)
VH: QVQLQQSGPELVKPGASVKISCKASGYAFSNSWMNWVKQRPGKGLEWIGRIYPGDGNINYYGKFKDKATLTADKSSNTAYMQLSSLTSEDSAVYFCARSFLYVDFDYWGQGTTLTVSS
VL: DVVMTQAPLSLPVSLGDQASISCRSSQTLVHSNGNTYLQWYLQKPGQSPKLLIYKVSNRFSGVPDRFSGSGSGTDFTLKISRVEAEDLGVYFCSQGTHVPYTFGGGTKLEIKR
notes: as for B3
For B4, the EC50 in test [1] was determined as 1.46 nM; in test [2] it was 1.28 nM. The binding result in [3] is recorded as “no binding”; in test [4], “no binding”; in test [5], “no binding”; in test [6] it was “no binding”; in test [7], “binds”; in test [8] it was “binds”. The binding result in test [9] and in test [10] was “no binding” in each case. The molecule also had a half-maximal inhibitory concentration (IC50) in test [12] of 3.4 nM.
